{"source": "patent US20190170753A1", "about": "(ICAHN SCHOOL OF MEDICINE AT MOUNT SINAI, published 2019)", "key": {"[1]": {"molecular_target": "T1, HCV core peptide 48 (hepatitis C virus, HELM PEPTIDE1{[O=C1N[C@H]2[C@H](CS[C@H]2CCCCC(=O)[*:2])N1].S.G.S.G.G.W.L.L.S.P.R.G.S.R.P.S.W.G.P.[am]}$$$$V2.0; SMILES …)", "T1 construct": "also called aa 95-109", "T1 peptide": "SGSGGWLLSPRGSRPSWGP", "test": "peptide EIA, 2 ug/mL IgG (summary table)", "experimental": "(§1) The coated plates were kept dry in a sealed foil pouch and stored at <10 degrees C. until ready for use. A peptide coated plate for each test antibody was blocked using 3% BSA in PBS with 0.5% Tween 20. The blocked plates were washed with distilled water and a 2 ug/mL solution of purified IgG from each test sample diluted in BSA block solution was added to each peptide coated well of the blocked plate and allowed to incubate at room temperature for at least one hour. Following incubation the plates were washed with distilled water. A 200 ng/mL solution of peroxidase labeled F(ab′)2 fragment goat anti-mouse IgG Fc fragment specific (Jackson Immunoresearch) in BSA block solution was added to all wells and incubated at room temperature for 30 minutes. The plates were washed with distilled water and o-phenylenediamine substrate was used as the chromagen to generate signal. Plates were read at 492 nm and the results were analyzed."}, "[2]": {"molecular_target": "T2, HCV core peptide 49 (hepatitis C virus, HELM PEPTIDE1{[O=C1N[C@H]2[C@H](CS[C@H]2CCCCC(=O)[*:2])N1].S.G.S.G.L.L.S.P.R.G.S.R.P.S.W.G.P.T.D.[am]}$$$$V2.0; SMILES …)", "T2 peptide": "SGSGLLSPRGSRPSWGPTD", "test": "peptide EIA, 2 ug/mL IgG (summary table)", "experimental": "as §1"}, "[3]": {"molecular_target": "T3, HCV core peptide 50 (hepatitis C virus, HELM PEPTIDE1{[O=C1N[C@H]2[C@H](CS[C@H]2CCCCC(=O)[*:2])N1].S.G.S.G.S.P.R.G.S.R.P.S.W.G.P.T.D.P.R.[am]}$$$$V2.0; SMILES …)", "T3 construct": "also called aa 99-113", "T3 peptide": "SGSGSPRGSRPSWGPTDPR", "test": "peptide EIA, 2 ug/mL IgG (summary table)", "experimental": "as §1"}, "[4]": {"molecular_target": "T4, HCV core peptide 51 (hepatitis C virus, HELM PEPTIDE1{[O=C1N[C@H]2[C@H](CS[C@H]2CCCCC(=O)[*:2])N1].S.G.S.G.R.G.S.R.P.S.W.G.P.T.D.P.R.R.R.[am]}$$$$V2.0; SMILES …)", "T4 peptide": "SGSGRGSRPSWGPTDPRRR", "test": "peptide EIA, 2 ug/mL IgG (summary table)", "experimental": "as §1"}, "[5]": {"molecular_target": "T5, HCV core peptide 52 (hepatitis C virus, HELM PEPTIDE1{[O=C1N[C@H]2[C@H](CS[C@H]2CCCCC(=O)[*:2])N1].S.G.S.G.S.R.P.S.W.G.P.T.D.P.R.R.R.S.R.[am]}$$$$V2.0; SMILES …)", "T5 peptide": "SGSGSRPSWGPTDPRRRSR", "test": "peptide EIA, 2 ug/mL IgG (summary table)", "experimental": "as §1"}, "[6]": {"molecular_target": "T6, HCV core peptide 53 (hepatitis C virus, HELM PEPTIDE1{[O=C1N[C@H]2[C@H](CS[C@H]2CCCCC(=O)[*:2])N1].S.G.S.G.P.S.W.G.P.T.D.P.R.R.R.S.R.N.L.[am]}$$$$V2.0; SMILES …)", "T6 peptide": "SGSGPSWGPTDPRRRSRNL", "test": "peptide EIA, 2 ug/mL IgG (summary table)", "experimental": "as §1"}, "[7]": {"molecular_target": "T7, HCV core peptide 54 (hepatitis C virus, HELM PEPTIDE1{[O=C1N[C@H]2[C@H](CS[C@H]2CCCCC(=O)[*:2])N1].S.G.S.G.W.G.P.T.D.P.R.R.R.S.R.N.L.G.K.[am]}$$$$V2.0; SMILES …)", "T7 peptide": "SGSGWGPTDPRRRSRNLGK", "test": "peptide EIA, 2 ug/mL IgG (summary table)", "experimental": "as §1"}, "[8]": {"molecular_target": "T8, HCV core peptide 55 (hepatitis C virus, HELM PEPTIDE1{[O=C1N[C@H]2[C@H](CS[C@H]2CCCCC(=O)[*:2])N1].S.G.S.G.P.T.D.P.R.R.R.S.R.N.L.G.K.V.I.[am]}$$$$V2.0; SMILES …)", "T8 construct": "also called aa 109-123", "T8 peptide": "SGSGPTDPRRRSRNLGKVI", "test": "peptide EIA, 2 ug/mL IgG (summary table)", "experimental": "as §1"}, "[9]": {"molecular_target": "T9, Mut1T110N biotin labeled HCV core peptide (hepatitis C virus, biotin labeled (position not given))", "T9 peptide": "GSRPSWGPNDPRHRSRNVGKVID", "test": "capture EIA; Ab 125 ng/mL; bt-peptide 500 ng/mL"}, "[10]": {"molecular_target": "T10, Mut6T110S biotin labeled HCV core peptide (hepatitis C virus, biotin labeled (position not given))", "test": "capture EIA; Ab 125 ng/mL; bt-peptide 500 ng/mL"}, "[11]": {"molecular_target": "T11, C113WT biotin labeled HCV core peptide (hepatitis C virus, also: biotin labeled, position not given here)", "T11 peptide": "RGSRPSWGPTD", "test": "capture EIA; Ab 125 ng/mL; bt-peptide 500 ng/mL"}, "[12]": {"molecular_target": "T12, C113T109N biotin labeled HCV core peptide (hepatitis C virus, also: biotin labeled, position not given here)", "T12 construct": "also called C113T110N", "T12 peptide": "RGSRPSWGPND", "test": "capture EIA; Ab 125 ng/mL; bt-peptide 500 ng/mL"}, "[13]": {"molecular_target": "T13, 92-133 biotin labeled HCV core peptide (hepatitis C virus, UniProt Q9WMX2 92-133, chain 1: biotin label (bt-pep). Its position and any spacer are not visible in the passages shown.)", "T13 construct": "Only the label 92-133 is printed", "T13 peptide": "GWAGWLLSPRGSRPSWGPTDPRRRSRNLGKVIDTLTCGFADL", "test": "capture EIA; Ab 125 ng/mL; bt-peptide 500 ng/mL", "experimental": "(§2) Assay wells were coated with sheep anti-mouse IgG Fc specific antibody and incubated overnight. The coating solution was then removed; the wells blocked using BSA/tween in PBS and then washed with dH2O. […] Next, biotin labeled peptides (diluted to 500 ng/mL in block) were added, the plates incubated for 10 minutes while shaking at 700 rpm and then washed. Peroxidase conjugated streptavidin (diluted to 200 ng/mL in block) was then added to all assay wells, incubated for 20 minutes while shaking at 700 rpm and then washed. Finally, color was developed using OPD and signal quenched using 1N H₂SO₄. Signal was read at 492 nm."}, "[14]": {"molecular_target": "T14, WT1STHV biotin labeled HCV core peptide (hepatitis C virus, biotin labeled (position not given))", "T14 peptide": "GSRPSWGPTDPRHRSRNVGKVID", "test": "capture EIA; Ab 125 ng/mL; bt-peptide 500 ng/mL"}, "[15]": {"molecular_target": "T12, C113T109N biotin labeled HCV core …", "test": "capture EIA; Ab 3.906 ng/mL; bt-peptide 500 ng/mL", "experimental": "as §2"}, "[16]": {"molecular_target": "T14, WT1STHV biotin labeled HCV core peptide", "test": "capture EIA; Ab 3.906 ng/mL; bt-peptide 500 ng/mL", "experimental": "as §2"}, "[17]": {"molecular_target": "T10, Mut6T110S biotin labeled HCV core …", "test": "capture EIA; Ab 15.6 ng/mL; bt-peptide 500 ng/mL (summary of Table 7)", "experimental": "as §2"}, "[18]": {"molecular_target": "T11, C113WT biotin labeled HCV core peptide", "test": "capture EIA; Ab 15.6 ng/mL; bt-peptide 500 ng/mL (summary of Table 7)", "experimental": "as §2"}, "[19]": {"molecular_target": "T14, WT1STHV biotin labeled HCV core peptide", "test": "capture EIA; Ab 15.6 ng/mL; bt-peptide 500 ng/mL (summary of Table 7)", "experimental": "as §2"}}, "note": "Where no end group is shown, it is not given here."}
{"binder": "Neo4 mouse monoclonal antibody (antibody, V domains shown, Mouse hybridoma antibody, isotype IgG1, purified with Protein G; also called HCV Neo4) VH: QIQLKESGPAVIKPSQSLSLTCIVSGFSITSSVYCWQWIRQPPGKGLEWMGRICYDGSVDYSPSITSRGTISRDTSLNKVFFQLSSVTNEDTAMYYCSRENHIDYYDTTYPSFDVWGAGTTVTVSS VL: DIVLTQSPASLIVSLGQRATISCRASKSVNEYGYTYMHWYQQKPGLPPKLLIYLASNLDSGVPARFSGSGSGTDFTLNIHPVEEEDAATYYCQHSRELPYTFGGGTKLEIKR", "values": [{"measurement": "OD (A492 nm)", "setting": "[1]", "value": 0.04, "unit": "OD"}, {"measurement": "OD (A492 nm)", "setting": "[2]", "value": 0.05, "unit": "OD"}, {"measurement": "OD (A492 nm)", "setting": "[3]", "value": 1.03, "unit": "OD"}, {"measurement": "OD (A492 nm)", "setting": "[4]", "value": 0.96, "unit": "OD"}, {"measurement": "OD (A492 nm)", "setting": "[5]", "value": 0.93, "unit": "OD"}, {"measurement": "OD (A492 nm)", "setting": "[6]", "value": 0.96, "unit": "OD"}, {"measurement": "OD (A492 nm)", "setting": "[7]", "value": 1.01, "unit": "OD"}, {"measurement": "OD (A492 nm)", "setting": "[8]", "value": 0.97, "unit": "OD"}, {"measurement": "signal at 492 nm", "setting": "[9]", "value": 0.204, "unit": "A492"}, {"measurement": "signal at 492 nm", "setting": "[10]", "value": 1.27, "unit": "A492"}, {"measurement": "signal at 492 nm", "setting": "[11]", "value": 0.0599, "unit": "A492"}, {"measurement": "signal at 492 nm", "setting": "[12]", "value": 0.0858, "unit": "A492"}, {"measurement": "signal at 492 nm", "setting": "[13]", "value": 1.31, "unit": "A492"}, {"measurement": "signal at 492 nm", "setting": "[14]", "value": 1.93, "unit": "A492"}, {"measurement": "signal at 492 nm", "setting": "[15]", "value": 0.0717, "unit": "A492"}, {"measurement": "signal at 492 nm", "setting": "[16]", "value": 0.669, "unit": "A492"}, {"measurement": "signal at 492 nm", "setting": "[17]", "value": 0.25, "unit": "A492"}, {"measurement": "signal at 492 nm", "setting": "[18]", "value": 0.0697, "unit": "A492"}, {"measurement": "signal at 492 nm", "setting": "[19]", "value": 1.42, "unit": "A492"}]}
